Tests used:
Format in all cases: biochemical
[1] = Effect of surfactants on hydrolase activity of cutinase; conditions: for Compatibility of surfactant with the cutinase: at the concentrations tested
Protocol: This example measures the effect of surfactants (detergents) on the hydrolytic activity of cutinase. Specifically, in this example, an aqueous solution was prepared so as to contain 120 nanomoles per liter of cutinase (isolated in a substantially pure form from P. mendocina, ATCC 53552, described in U.S. Ser. No. 932,959 filed Nov. 19, 1986 and incorporated herein by reference); and 0.1 moles/liter of Tris Tris(hydroxymethyl)aminomethane! buffer maintained at pH 8.0 and 25° C. In some cases, surfactant sodium dodecyl sulfate (SDS) and/or Triton X-100™ (octoxynol), available from Rohn & Haas, Philadelphia, Pa.! was then added in the amount specified in Table 4 below. In this example, the enzymatic activity of the cutinase was measured in these solutions using the amount of p-nitrophenol generated from the p-nitrophenylbutyrate substrate as measured by following the absorbance of p-nitrophenol at 410 nm. The enzymatic activity of the cutinase under the above conditions and in the absence of surfactant is arbitrarily assigned a value of 100 percent and enzymatic activity of the other test solutions are reported as a percentage of the standard.

[2] = pH stability of bacterial cutinase, half-life at 50° C., hydrolysis of trioctanoin in polyvinyl alcohol emulsions
Protocol: In this example the half-life of the same cutinase used in Example 1 above was measured at 50° C. at various pHs. Specifically, cutinase was introduced into a 0.1M sodium phosphate buffer at the pH specified below and the activity was measured by hydrolysis of trioctanoin in polyvinyl alcohol emulsions. The time required for the activity to diminish to 1/2 of its initial value is taken as the half-life at that particular pH.

[3] = Cutinase activity against pH (FIG. 1)
[4] = Stability of cutinase against proteases, hydrolysis of p-nitrophenyl butyrate; conditions: for Cutinase activity after time: pH 10, 37° C.
Protocol: A. In part A of this example, the cutinase employed was that cutinase isolated in a substantially pure form from P. mendocina, ATCC 53552, described in U.S. Ser. No. 932,959 filed Nov. 19, 1986 and incorporated herein by reference and the protease employed was either Maxacal™ (a substilisin protease available from Gist-Brocade, N.V., Delft, Holland) or Esperase™ (a protease available from Novo Industries, Copenhagen, Denmark).
In this example aqueous test solutions containing 42 μg/ml of cutinase and either 35 μg/ml (Maxacal™) or 64 μg/ml (Esperase™) of protease were prepared. The solutions were buffered to pH 10 with 0.1M sodium phosphate. The solutions were incubated at 37° C. and the enzymatic activity of cutinase was periodically monitored by the hydrolysis of a model cutinase substrate p-nitrophenyl butyrate as measured by the absorbance change at 410 nm in 100 mM Tris buffer containing 0.1% Triton X-100 at pH 8. This value correlated against a standard, i.e., an aqueous solution containing cutinase but no protease. Diminishment in the enzymatic activity of the cutinase in the test solutions as compared to the standard is attributed to degradation of the cutinase by the protease.

[5] = Stability of cutinase to oxidants (hydrogen peroxide); conditions: for Percent Cutinase Activity: pH 8.4, 25° C., two hours
Protocol: Specifically, in this example, an aqueous solution of 0.5 mg/ml of cutinase (isolated in a substantially pure form from P. mendocina, ATCC 53552, described in U.S. Ser. No. 932,959 filed Nov. 19, 1986 and incorporated herein by reference) containing 0.1M sodium phosphate buffer was incubated in varying amounts of hydrogen peroxide wherein the aqueous solution was maintained at pH 8.4 and at 25° C. for two hours. The enzymatic activity of the cutinase under the above conditions and in the absence of hydrogen peroxide is arbitrarily assigned a value of 100% and enzymatic activity of the other test solutions are reported as a percentage of the standard.

[6] = Removal of cutin-like stains from an insoluble support matrix, 3H-triolein hydrolysis; conditions: polyester swatches, 1 percent BSA
Protocol: The substrate was prepared by diluting 1 mCi of ^3 H-Triolein (0.5 mCi/ml, […]) into 17 ml isopropanol containing 421 mg of non-^3 H-Triolein. The final concentration was about 23-24 mg Triolein/ml. This was divided into 1 ml aliquots and stored.
Polyester cloth swatches cut into approximately 1/2 inch×1/2 inch squares were laid onto a glass plate. 3 μl of the above mixture was pipetted onto each swatch and allowed to air dry.
A solution comprising 1 percent fatty acid free bovine serum albumin (BSA), and 100 mM of a suitable buffer, preferably Tris (pH range 6 to 9) or glycine (pH range 8 to 11) was allowed to equilibrate to a fixed temperature (preferably 32° C.) in a shaking water bath. An aliquot of cutinase (0.25 to 1.5 μg/ml) was then added to 2.8 ml of the BSA solution, followed by the insertion of four of the cloth swatches, taking care to keep the swatches as separate as possible. The cutinase added was isolated from Fusarium solani pisi, Colletotrichum capsici, Pseudomonas mendocina or Pestalotia subcuticularia. The entire mixture was then allowed to shake in the constant temperature bath at 150 rpm for 15 minutes.
An aliquot of the liquor, preferably 20% of the entire volume was pipetted into a scintillation vial containing 10 ml of Ecolume™ scintillation fluid. After chilling, the scintillation vials were counted. […]

[7] = Cutinase activity after 28 minutes with proteases, pH stat hydrolysis of trioctanoin; conditions: 2 μg/ml cutinase, pH 10, 37° C.
Description: B. In part B of this example, the cutinase employed was the same as in part A above whereas the protease employed was either Alcalase™ (an alkaline protease available from Novo Industries, Copenhagen, Denmark), a mixture of Alcalase™ and Savinase™ (an alkaline protease available from Novo Industries, Copenhagen, Denmark), or a mixture of Savinase™ and Esperase™ (a protease available from Novo Industries, Copenhagen, Denmark).
In this example, aqueous test solutions containing cutinase contained 2 μg/ml of cutinase and the amount of protease specified in Table 2 below. The solutions were incubated at 37° C. for 28 minutes at pH 10 and the enzymatic activity of cutinase was periodically measured in a pH stat by the hydrolysis of trioctanoin in a 0.5 percent trioctanoin and a 0.05 percent sodium dodecyl sulfate emulsion. The measured value was correlated against a standard, i.e., an aqueous solution containing cutinase but no protease. Diminishment in the enzymatic activity of the cutinase in the test solutions as compared to the standard is attributed to degradation of the cutinase by the protease.

## octoxynol [Triton X-100, reference compound]
[1]
  Compatibility of surfactant with the cutinase: compatible with the cutinase

## CCCCCCCCCCCCOS(=O)(=O)[O-].[Na+] [sodium dodecyl sulfate, reference compound]
[1]
  Compatibility of surfactant with the cutinase: is not

B1: cutinase: cutinase isolated in a substantially pure form from Pseudomonas mendocina ATCC 53552, amino acid sequence of SEQ ID NO:1 (protein)
chain: APLPDTPGAPFPAVANFDRSGPYTTSSQSEGPSCRIYRPRNLGQGGVRHPVILWGNGTGAGPSTYAGLLSHWASHGFVVAAAETSNAGTGREMLACLDYLVRENDTPYGTYSGKLNTGRVGTSGHSQGGGGSIMAGQDTRVRTTAPIQPYTLGLGHDSASQRRQQGPMFLMSGGGDTIAFPYLNAQPVYRRANVPVFWGERRYVSHFEPVGSGGAYRGPSTAWFRFQLMDDQDARATFYGAQCSLCTSLLWSVERRGL
[2]; neutral and alkaline pHs, 50° C.
  Stability of cutinase activity at pH: sufficiently stable
[2]; pH 7, 0.1M sodium phosphate buffer
  Half-life at 50° C.: 30 h
[2]; pH 8, 0.1M sodium phosphate buffer
  Half-life at 50° C.: 25 h
[2]; pH 9, 0.1M sodium phosphate buffer
  Half-life at 50° C.: 12 h
[2]; pH 10, 0.1M sodium phosphate buffer
  Half-life at 50° C.: 0.3 h
[1]; Triton X-100 0, SDS 0 weight percent (standard assigned 100), pH 8.0, 25° C.
  Percent Activity: 100%
[1]; Triton X-100 0, SDS 0.05 weight percent
  Percent Activity: 30%
[1]; Triton X-100 0, SDS 0.1 weight percent
  Percent Activity: 23%
[1]; Triton X-100 0, SDS 0.2 weight percent
  Percent Activity: 14%
[1]; Triton X-100 0, SDS 0.4 weight percent
  Percent Activity: 6%
[1]; Triton X-100 0.05, SDS 0.05 weight percent
  Percent Activity: 132%
[1]; Triton X-100 0.1, SDS 0.1 weight percent
  Percent Activity: 130%
[1]; Triton X-100 0.2, SDS 0 weight percent
  Percent Activity: 78%
[1]; Triton X-100 0.2, SDS 0.05 weight percent
  Percent Activity: 125%
[1]; Triton X-100 0.2, SDS 0.1 weight percent
  Percent Activity: 138%
[1]; Triton X-100 0.2, SDS 0.2 weight percent
  Percent Activity: 98%
[1]; Triton X-100 0.4, SDS 0 weight percent
  Percent Activity: 60%
[1]; Triton X-100 0.4, SDS 0.4 weight percent
  Percent Activity: 78%
[3]; FIG. 1
  pH at which cutinase activity reaches a maximum: 7
[3]; up to pH 11, FIG. 1
  Share of maximum activity maintained: ≥ 80%
[4]; Esperase 64 μg/ml, 0 min
  Cutinase activity after time: 1.73 absorbance change at 410 nm
[4]; Esperase 64 μg/ml, 5 min
  Cutinase activity after time: 1.64 absorbance change at 410 nm
[4]; Esperase 64 μg/ml, 10 min
  Cutinase activity after time: 1.59 absorbance change at 410 nm
[4]; Esperase 64 μg/ml, 15 min
  Cutinase activity after time: 1.51 absorbance change at 410 nm
[4]; Esperase 64 μg/ml, 840 min
  Cutinase activity after time: 0.456 absorbance change at 410 nm
[4]; Maxacal 35 μg/ml, 0 min
  Cutinase activity after time: 1.68 absorbance change at 410 nm
[4]; Maxacal 35 μg/ml, 5 min
  Cutinase activity after time: 1.58 absorbance change at 410 nm
[4]; Maxacal 35 μg/ml, 10 min
  Cutinase activity after time: 1.72 absorbance change at 410 nm
[4]; Maxacal 35 μg/ml, 15 min
  Cutinase activity after time: 1.66 absorbance change at 410 nm
[4]; Maxacal 35 μg/ml, 840 min
  Cutinase activity after time: 0.134 absorbance change at 410 nm
[4]; Standard, no protease, 0 min, 42 μg/ml cutinase
  Cutinase activity after time: 1.57 absorbance change at 410 nm
[4]; Standard, no protease, 5 min
  Cutinase activity after time: 1.60 absorbance change at 410 nm
[4]; Standard, no protease, 10 min
  Cutinase activity after time: 1.47 absorbance change at 410 nm
[4]; Standard, no protease, 15 min
  Cutinase activity after time: 1.63 absorbance change at 410 nm
[4]; Standard, no protease, 840 min
  Cutinase activity after time: 1.61 absorbance change at 410 nm
[4]; results from A and B of Example 1, periods of time commonly encountered in cleaning use
  Stability in aqueous solution in the presence of a protease: stable
[5]; hydrogen peroxide
  Stability of cutinase activity in the presence of an oxidant: sufficiently stable
[5]; hydrogen peroxide 0 ppm (standard assigned 100%)
  Percent Cutinase Activity: 100%
[5]; hydrogen peroxide 100 ppm
  Percent Cutinase Activity: 86%
[5]; hydrogen peroxide 200 ppm
  Percent Cutinase Activity: 86%
[5]; hydrogen peroxide 500 ppm
  Percent Cutinase Activity: 91%
[5]; hydrogen peroxide 1000 ppm
  Percent Cutinase Activity: 95%
[6]
  Sp. activity triolein hydrolysis: 157,045 cnts./10 min./μg enzyme
[6]; cutinase 0.25 to 1.5 μg/ml
  Triolein hydrolysis: 9,250 cnts./10 min.
[7]; Alcalase 34.7 μg/ml
  Cutinase activity in the aqueous solution after 28 minutes: 420.3 units of octanoic acid released
[7]; Alcalase/Savinase 17.7/20.0 μg/ml
  Cutinase activity in the aqueous solution after 28 minutes: 428.0 units of octanoic acid released
[7]; Esperase/Savinase 15.0/13.0 μg/ml
  Cutinase activity in the aqueous solution after 28 minutes: 411.0 units of octanoic acid released
[7]; no protease
  Cutinase activity in the aqueous solution after 28 minutes: 417.8 units of octanoic acid released

From patent US5512203A, “Cutinase cleaning compositions” (Genencor International, Inc., priority 1994, dated 1996)
